Results from PMC9472132 (Journal for Immunotherapy of Cancer, 2022).
Read-outs that look alike come from different tables or passages of the source.

Experiments:
[1] = biological target: T1, rhesus monkey CD27 on primary peripheral blood T cells (Macaca mulatta, UniProt F7BYS2); experiment: flow cytometry on cells
[2] = biological target: T2, human CD27 on primary peripheral blood T cells (Homo sapiens (Human)., UniProt P26842); experiment: flow cytometry on cells
[3] = biological target: T1, rhesus monkey CD27 on primary …; experiment: flow cytometry on cells; remark: listed apart in the source
[4] = biological target: T2, human CD27 on primary peripheral blood …; experiment: flow cytometry on cells; remark: listed apart in the source
[5] = biological target: T3, human CD27 expressed on CHO-K1 cells (human, UniProt P26842); experiment: flow cytometry on cells
[6] = biological target: rhesus monkey CD27-IgG fusion protein (Macaca mulatta, UniProt F7BYS2); experiment: SPR
[7] = biological target: human CD27-IgG fusion protein (Homo sapiens (Human)., UniProt P26842); experiment: SPR
[8] = biological target: rhesus monkey CD27 expressed on CHO-K1 cells (Macaca mulatta, UniProt F7BYS2); experiment: ELISA
[9] = biological target: T3, human CD27 expressed on CHO-K1 cells; experiment: ELISA

Row | EC50 [1] | EC50 [2] | EC50 [3] | EC50 [4] | IC50 [5] | Kd [6] | koff [6] | kon [6] | Kd [7] | koff [7] | kon [7] | EC50 [8] | EC50 [9] | Binder
1 | 0.22 nM | 0.3 nM | 0.17 nM | 0.32 nM | 0.24 nM | 4.3 nM | 0.001 s⁻¹ | 230000 M⁻¹ s⁻¹ | 5.1 nM | 0.0011 s⁻¹ | 220000 M⁻¹ s⁻¹ | 0.054 nM | 0.072 nM | MK-5890 (humanized anti-human CD27 agonist antibody, hIgG1) (antibody, V domains shown) VH: EIQLVQSGAEVKKPGASVKVSCKASGYTFTNYGMNWVKQAPGQGLKWMGWINTNTGEPTYAEEFKGRFTFTLDTSISTAYMELSSLRSEDTAVYYCAREGDAMDYWGQGTTVTVSS VL: EIVLTQSPATLSLSPGERATLSCSASSSVSYMHWYQQKPGQAPKRWIYDTSKLASGVPARFSGSGSGTDYSLTISSLEPEDFAVYYCQQWNSYPFTFGQGTKLEIK
2 | 1.92 nM | 1.3 nM | 1.58 nM | 1.54 nM | 2.85 nM | 0.97 nM | 0.00022 s⁻¹ | 230000 M⁻¹ s⁻¹ | 0.63 nM | 0.00012 s⁻¹ | 190000 M⁻¹ s⁻¹ | 0.193 nM | 0.325 nM | varlilumab analog (anti-CD27 fully human IgG1 antibody, made in-house from published patented sequences) (antibody, V domains shown) VH: QVQLVESGGGVVQPGRSLRLSCAASGFTFSSYDMHWVRQAPGKGLEWVAVIWYDGSNKYYADSVKGRFTISRDNSKNTLYLQMNSLRAEDTAVYYCARGSGNWGFFDYWGQGTLVTVSS VL: DIQMTQSPSSLSASVGDRVTITCRASQGISRWLAWYQQKPEKAPKSLIYAASSLQSGVPSRFSGSGSGTDFTLTISSLQPEDFATYYCQQYNTYPRTFGQGTKVEIK
